Measurements as given in PMC5133854.
One block for each substance: values may come before it.

Experiments:
[1] = biological target: mucus-binding protein (MUB) from Lactobacillus reuteri ATCC 53608 (Lactobacillus reuteri ATCC 53608) (UniProt Q9RGN5); experiment: AFM single-molecule force spectroscopy; MUB covalently attached to both the AFM tip and the glass slide; PBS pH 7.4; force-volume mode; repeated after adding free MUB (0.05 mg/mL) or anti-Mub antibody (0.05 mg/mL)
[2] = biological target: purified porcine gastric mucin (pPGM) (porcine); experiment: AFM single-molecule force spectroscopy; MUB covalently attached to the AFM tip, pPGM covalently attached to the glass slide; PBS pH 7.4; force-volume mode, 2 um/s, 1024 force-distance curves; repeated on the same region after adding free sugars or anti-Mub antibody (0.05 mg/mL)
[3] = biological target: purified porcine gastric mucin (pPGM) (porcine); experiment: AFM single-molecule force spectroscopy; Gal-3 covalently attached to the AFM tip, pPGM covalently attached to the glass slide; PBS pH 7.4; force-volume mode
Q9RGN5 = experiment: AFM single-molecule force spectroscopy; MUB covalently attached to both the AFM tip and the glass slide; PBS pH 7.4; force-volume mode; repeated after adding free MUB (0.05 mg/mL) or anti-Mub antibody (0.05 mg/mL); details: other: AFM single-molecule force spectroscopy

- modal value of the rupture adhesion force [1]: 209 pN
- modal value of the rupture adhesion force [2]: 380 pN
- modal value of the rupture adhesion force (PBS, before the antibody) [2]: 482 pN
Substance: mucus-binding protein (MUB) from Lactobacillus reuteri ATCC 53608 (from UniProt Q9RGN5 1-3269) (natural protein)

- binding energy [3]: 0.79 aJ
- energy (integration of the adhesive peaks) [3]: 3.08 aJ
Substance: Galectin-3 (Gal-3) (from UniProt P17931 1-250) (natural protein)

Substance: mucus-binding protein (MUB) from Lactobacillus reuteri ATCC 53608
- percent of force curves with unfolding events (Q9RGN5): the numbers of unfolding events in the force volume maps were 71% of the 1024 force curves
